These substances were tested against Factor Xa (Homo sapiens, UniProt P00742) (assay: Factor Xa amidolytic assay (chromogenic substrate)). Conditions: mutants produced in E. coli; read-out: Ki (nM), inhibition constant for Factor Xa.
Assay type: biochemical
Description: Trypsin, Factor Xa, thrombin, Factor XIIa and plasmin amidolytic assays […]
Briefly, the following were added to a 96-well microtiter plate well (see Table below):
50 μl inhibitor (various concentrations as required, diluted in TESA);
50 μl protease (suitable concentration, diluted in TBSA)
The plate was incubated at room temperature for 30 minutes or for 2 hours (Factor Xa); and 50 μl chromogenic substrate was added (as required, diluted in water). The initial rate was measured at […] during 10-30 minutes at room temperature.
To determine the inhibition constants, the initial rate (vi) was measured at various inhibitor ([It ]) and substrate concentrations, and the apparent inhibition constant (Ki) was determined by fitting the data obtained at each substrate concentration with the following equation: […]
vi /vo ={([Et ]-[It ]-Ki^*) +[([It […]
where vo is the uninhibited initial rate and [Et ] is the total enzyme concentration. Extrapolation of Ki^* values to zero substrate concentrations yields a value for the real inhibition constant.

Chain of Factor Xa (P00742 235-488 limits assumed): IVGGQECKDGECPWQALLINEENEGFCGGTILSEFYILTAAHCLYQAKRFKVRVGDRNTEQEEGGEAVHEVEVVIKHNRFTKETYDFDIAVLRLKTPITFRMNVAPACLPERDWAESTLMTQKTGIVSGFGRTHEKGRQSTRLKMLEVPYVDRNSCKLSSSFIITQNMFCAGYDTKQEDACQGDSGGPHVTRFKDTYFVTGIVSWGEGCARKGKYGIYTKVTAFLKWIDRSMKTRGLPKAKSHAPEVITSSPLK
Chain of Factor Xa (P00742 41-179 partner limits assumed): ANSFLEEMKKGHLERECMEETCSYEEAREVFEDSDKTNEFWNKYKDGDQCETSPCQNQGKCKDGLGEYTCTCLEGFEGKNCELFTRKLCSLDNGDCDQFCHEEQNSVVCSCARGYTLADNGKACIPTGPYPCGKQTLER

Substance	Ki [nM]
5L65: BPTI with substitutions 11Ser 13Leu 15Arg 17Leu 18His 19Lys 34Tyr 39Tyr 46Glu	5
3L60: BPTI with substitutions 13Ile 15Arg 17Tyr 18Tyr 19Lys 39Leu 46Glu	4
5L84: BPTI with substitutions 11Glu 13Leu 15Arg 17Leu 18His 19Lys 34Tyr 39Phe 46Glu	2
3L55: BPTI with substitutions 13Ile 15Arg 17Ala 18Phe 19Asn 39Leu 46Glu	5

The remaining substances from weak to strong by Ki, led by results:

Ki [nM]	Substance
5	5L69: BPTI with substitutions 11Pro 13Ile 15Arg 17Leu 18His 19Lys 34Tyr 39Met 46Glu
4	5L48: BPTI with substitutions 11Glu 13Trp 15Arg 17Leu 18His 19His 34Ile 39Gly 46Glu
1.5	5L68: BPTI with substitutions 11Ser 13Leu 15Arg 17Leu 18His 19Lys 34Tyr 39Phe 46Glu

— patent US5747449A (Corvas International, Inc., priority 1993, dated 1998)
